Experimental findings from the supplement of paper PMC7877785 are described below.

± gives the uncertainty stated by the source.

The series is described as follows: self-splicing fitness, log relative to wild type (ln ratio); higher = more splicing; Tetrahymena group I intron in knt gene, E. coli kanamycin selection, DiMSum; sequences stand for … in CUCUCU…GGAGGGAAAAGUUAUCAGGCAUGCACCUGGUAGCUAGUCUUUAAACCAAUAGAUUGCAUCGGUUUAAAAGGCAAGACCGUCAAAUUGCGGGAAAGGGGUCAACAGCCGUUCAGUACCAAGUCUCAGGGGAAACUUUGAGAUGGCCUUGCAAAGGGUAUGGUAAUAAGCUGACGGACAUGGUCCUAACCACGCAGCCAAGUCCUAAGUCAACAGAUCUUCUGUUGAUAUGGAUGCAGUUCACAGACUAAAUGUCGGUCGGGGAAGAUGUAUUCUUCUCAUAAGAUAUAGUCGGACCUCUCCUUAAUGGGAGCUAGCGGAUGAAGUGAUGCAACACUGGAGCCGCUGGGAACUAAUUUGUAUGCGAAAGUAUAUUGAUUAGUUUUGGAGUACUCGUGGUCG
The method in brief: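 Colonies from six replicate transformations of E. coli BL21(DE3) were pooled and amplicon-sequenced on an Illumina HiSeq 2500. The library placed an intron with all eight P1ex-region nucleotides randomised inside the knt kanamycin-resistance gene on pET-22b(+), and cells grew overnight at 37°C or 30°C on LB agar with or without 25 μg/mL kanamycin (plus 100 μg/mL carbenicillin, 50 μM IPTG, 0.2% rhamnose). Fitness is the DiMSum error-weighted combination of wild-type-normalised replicate fold changes, kanamycin versus none.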

On to GGCGAGCAAUAUUACGGCAA, for which the “self-splicing fitness (ln)” value was -0.896 ± 0.19 (30 °C) and -0.442 ± 0.2 (37 °C). The corresponding values for UGGAAGCAAUAUUACGUUGU are -3.64 ± 0.37 and -2.88 ± 0.3.

Turning to UUUCAGCAAUAUUACGAUCC, the “self-splicing fitness (ln)” value (37 °C) is -0.887 ± 0.39. On to AAUUAGCAAUAUUACGAAUU, for which the “self-splicing fitness (ln)” value runs as follows: (30 °C) -2.7 ± 0.15; (37 °C) -1.1 ± 0.13.

On to UGGGAGCAAUAUUACGUUCU, for which the “self-splicing fitness (ln)” value is -2.95 ± 0.29 (30 °C) and -2.35 ± 0.32 (37 °C).

CAAGAGCAAUAUUACGGUCU: the “self-splicing fitness (ln)” value is, setting by setting: (30 °C) -2.35 ± 0.16; (37 °C) -1.97 ± 0.22. For GCUAAGCAAUAUUACGGGAC, in that order: -2.81 ± 0.13 and -1.53 ± 0.14.

Regarding GGAGAGCAAUAUUACGGCCU, the “self-splicing fitness (ln)” value (30 °C) was -2.34 ± 0.29 and the “self-splicing fitness (ln)” value (37 °C) is -1.19 ± 0.43. The corresponding values for CUUCAGCAAUAUUACGCGCA are -1.93 ± 0.29 and 0.383 ± 0.28. The corresponding values for CGGUAGCAAUAUUACGGGGA are -2.53 ± 0.24 and -3.03 ± 0.47.

With AUGUAGCAAUAUUACGAUAU, the “self-splicing fitness (ln)” value runs as follows: (30 °C) -0.909 ± 0.11; (37 °C) 0.222 ± 0.14. The corresponding values for AAUGAGCAAUAUUACGUUGC are -4.6 ± 0.45 and -2.78 ± 0.29. For CCCAAGCAAUAUUACGCGAU, in that order: -3.93 ± 0.21 and -2.5 ± 0.19. Take UGGAAGCAAUAUUACGGGCC: the “self-splicing fitness (ln)” value (37 °C) was -1.27 ± 0.34.

As for UGCGAGCAAUAUUACGUACC, the “self-splicing fitness (ln)” value (30 °C) is -2.77 ± 0.14 and the “self-splicing fitness (ln)” value (37 °C) was -2.75 ± 0.25. The corresponding values for CCGCAGCAAUAUUACGCGCG are -3.21 ± 0.2 and -1.9 ± 0.17.

In the case of UCGAAGCAAUAUUACGAGGG, the “self-splicing fitness (ln)” value is -2.48 ± 0.15 (30 °C) and -1.62 ± 0.2 (37 °C). As for GAGGAGCAAUAUUACGAUAC, the “self-splicing fitness (ln)” value reads like this: (30 °C) -1.9 ± 0.18; (37 °C) -2.05 ± 0.38. As to UUUUAGCAAUAUUACGGAUA, the “self-splicing fitness (ln)” value is, setting by setting: (30 °C) -1.07 ± 0.33; (37 °C) -1.21 ± 0.4. The corresponding values for GAUCAGCAAUAUUACGGGGA are -1.61 ± 0.12 and -0.776 ± 0.12. As for UGACAGCAAUAUUACGUCUU, the “self-splicing fitness (ln)” value by setting is: (30 °C) -0.839 ± 0.049; (37 °C) -0.539 ± 0.07. Turning to UGUUAGCAAUAUUACGCAUC, the “self-splicing fitness (ln)” value (37 °C) is -1.93 ± 0.27. Consider UGACAGCAAUAUUACGUCGU, for which the “self-splicing fitness (ln)” value (30 °C) was -1.56 ± 0.15 and the “self-splicing fitness (ln)” value (37 °C) is -3.25 ± 0.24. CCUCAGCAAUAUUACGAUCC: the “self-splicing fitness (ln)” value (30 °C) was -2.43 ± 0.44. For UCUCAGCAAUAUUACGGUUC, the “self-splicing fitness (ln)” value (30 °C) was -2.57 ± 0.21 and the “self-splicing fitness (ln)” value (37 °C) is -1.73 ± 0.34.

For GGCUAGCAAUAUUACGGCUG, the “self-splicing fitness (ln)” value (30 °C) amounted to 0.0242 ± 0.097 and the “self-splicing fitness (ln)” value (37 °C) is -0.992 ± 0.12. For ACAAAGCAAUAUUACGGUUU, in that order: -1.71 ± 0.076 and -0.493 ± 0.083.

On to GAUCAGCAAUAUUACGCAUU, for which the “self-splicing fitness (ln)” value is, setting by setting: (30 °C) -2.36 ± 0.26; (37 °C) -1.05 ± 0.32.

As for UGAUAGCAAUAUUACGUUUU, the “self-splicing fitness (ln)” value reads like this: (30 °C) -3.75 ± 0.16; (37 °C) -1.85 ± 0.14. The corresponding values for CGAUAGCAAUAUUACGGAGU are -2.09 ± 0.16 and -3.36 ± 0.32. Turning to GUGCAGCAAUAUUACGUACC, the “self-splicing fitness (ln)” value (37 °C) was -2.41 ± 0.32. With GGUUAGCAAUAUUACGUCUG, the “self-splicing fitness (ln)” value (30 °C) is -2.1 ± 0.14 and the “self-splicing fitness (ln)” value (37 °C) is -0.405 ± 0.11.

On to UCACAGCAAUAUUACGCUUG, for which the “self-splicing fitness (ln)” value is -2.14 ± 0.12 (30 °C) and 0.263 ± 0.1 (37 °C). The corresponding values for AUCCAGCAAUAUUACGCUUG are -3.27 ± 0.2 and -2.7 ± 0.25. The corresponding values for CCACAGCAAUAUUACGGAAC are -3.75 ± 0.24 and -2.47 ± 0.23. The corresponding values for GUCCAGCAAUAUUACGCUUG are -1.57 ± 0.079 and -1.31 ± 0.09. For the sequence GGUCAGCAAUAUUACGGAGC, the “self-splicing fitness (ln)” value is, setting by setting: (30 °C) -1.4 ± 0.18; (37 °C) -0.82 ± 0.14.

As for CAGAAGCAAUAUUACGCAAC, under “37 °C”, the “self-splicing fitness (ln)” value was -2.39 ± 0.33. Consider CUCCAGCAAUAUUACGAGCC, for which the “self-splicing fitness (ln)” value was -2.73 ± 0.22 (30 °C) and -2.15 ± 0.28 (37 °C). Take UUACAGCAAUAUUACGCCCG: the “self-splicing fitness (ln)” value is -0.115 ± 0.18 (30 °C) and 0.245 ± 0.25 (37 °C). For AGUAAGCAAUAUUACGCAUA, in that order: -2.31 ± 0.25 and -1.38 ± 0.15. Take CUGGAGCAAUAUUACGUCAC: the “self-splicing fitness (ln)” value by setting is: (30 °C) -2.63 ± 0.39; (37 °C) -2.53 ± 0.39. For UGCGAGCAAUAUUACGAUUA, in that order: -1.56 ± 0.13 and -1.1 ± 0.11.

In the case of ACCUAGCAAUAUUACGGUAC, the “self-splicing fitness (ln)” value is, setting by setting: (30 °C) -3.75 ± 0.37; (37 °C) -2.76 ± 0.26. The corresponding values for UACAAGCAAUAUUACGAUUU are -1.76 ± 0.066 and -0.754 ± 0.084. The corresponding values for GUACAGCAAUAUUACGGCUG are -3.82 ± 0.21 and -1.38 ± 0.14. The corresponding values for UUGCAGCAAUAUUACGUAGU are -3.7 ± 0.22 and -2.51 ± 0.28.

With GGAAAGCAAUAUUACGUAAC, the “self-splicing fitness (ln)” value is, setting by setting: (30 °C) -1.42 ± 0.12; (37 °C) -1.42 ± 0.16. With CAACAGCAAUAUUACGGCCA, the “self-splicing fitness (ln)” value by setting is: (30 °C) -2.55 ± 0.15; (37 °C) -1.59 ± 0.14. The corresponding values for ACUAAGCAAUAUUACGGCGU are -0.894 ± 0.078 and -0.0271 ± 0.1.

In the case of GGAAAGCAAUAUUACGGCAG, the “self-splicing fitness (ln)” value is -1.79 ± 0.21 (30 °C) and -3.11 ± 0.43 (37 °C).

Turning to UUACAGCAAUAUUACGUAAA, the “self-splicing fitness (ln)” value is -1.59 ± 0.13 (30 °C) and -0.34 ± 0.12 (37 °C). For GAGGAGCAAUAUUACGGCGG, in that order: -2.33 ± 0.2 and -1.7 ± 0.38. As for CCAUAGCAAUAUUACGAGCC, the “self-splicing fitness (ln)” value runs as follows: (30 °C) -4.57 ± 0.45; (37 °C) -2.16 ± 0.36. For UGCAAGCAAUAUUACGCUCA, in that order: -0.11 ± 0.16 and 0.138 ± 0.2. Regarding CUCGAGCAAUAUUACGCAGG, the “self-splicing fitness (ln)” value is, setting by setting: (30 °C) -3.62 ± 0.3; (37 °C) -2.36 ± 0.25.

For the sequence UUCGAGCAAUAUUACGUUGG, the “self-splicing fitness (ln)” value by setting is: (30 °C) -4.14 ± 0.39; (37 °C) -2.03 ± 0.43.

In the case of UGUUAGCAAUAUUACGUCAC, the “self-splicing fitness (ln)” value reads like this: (30 °C) -3.58 ± 0.33; (37 °C) -2.64 ± 0.38. As for GGCGAGCAAUAUUACGAAGG, the “self-splicing fitness (ln)” value by setting is: (30 °C) -3.8 ± 0.27; (37 °C) -2.88 ± 0.4. Take CAAGAGCAAUAUUACGGGGG: the “self-splicing fitness (ln)” value reads like this: (30 °C) -3.3 ± 0.21; (37 °C) -2.62 ± 0.2. The corresponding values for GCACAGCAAUAUUACGCGUC are -3.73 ± 0.2 and -0.646 ± 0.098. The corresponding values for ACAAAGCAAUAUUACGAAGA are -3.03 ± 0.42 and -0.86 ± 0.18. For CGGGAGCAAUAUUACGCAAG, in that order: -3.14 ± 0.23 and -2.13 ± 0.29. Turning to UGAUAGCAAUAUUACGGGGG, the “self-splicing fitness (ln)” value is -1.83 ± 0.18 (30 °C) and -2.45 ± 0.28 (37 °C). The corresponding values for AUGCAGCAAUAUUACGUUUG are -3.45 ± 0.17 and -1.82 ± 0.17.

Regarding GGUGAGCAAUAUUACGCGAC, the “self-splicing fitness (ln)” value was -3.49 ± 0.29 (30 °C) and -3.12 ± 0.25 (37 °C).

With AUGGAGCAAUAUUACGCUUA, the “self-splicing fitness (ln)” value is, setting by setting: (30 °C) -2.53 ± 0.33; (37 °C) -0.194 ± 0.21. For UAAAAGCAAUAUUACGUGUG, in that order: -1.07 ± 0.052 and -0.712 ± 0.069. For UAUUAGCAAUAUUACGGUGA, in that order: -1.92 ± 0.12 and -1.33 ± 0.11.

For UUAUAGCAAUAUUACGGCGA, the “self-splicing fitness (ln)” value (30 °C) was -1.38 ± 0.14 and the “self-splicing fitness (ln)” value (37 °C) was -0.219 ± 0.18. The corresponding values for CGUAAGCAAUAUUACGUGGA are -2.93 ± 0.2 and -2.44 ± 0.24. For UCCUAGCAAUAUUACGUAAG, in that order: -3.31 ± 0.24 and -2.4 ± 0.23. Consider AUAAAGCAAUAUUACGUCCC, for which the “self-splicing fitness (ln)” value reads like this: (30 °C) -0.201 ± 0.097; (37 °C) -0.0866 ± 0.13. As to CUAAAGCAAUAUUACGGCAA, the “self-splicing fitness (ln)” value (30 °C) was -3.27 ± 0.18 and the “self-splicing fitness (ln)” value (37 °C) is -1.35 ± 0.15. For UCUAAGCAAUAUUACGUCUG, the “self-splicing fitness (ln)” value was -1.72 ± 0.16 (30 °C) and -1.18 ± 0.19 (37 °C). As to CUCGAGCAAUAUUACGCUCA, the “self-splicing fitness (ln)” value is, setting by setting: (30 °C) -1.96 ± 0.27; (37 °C) -2.15 ± 0.45. The corresponding values for UCAAAGCAAUAUUACGCCCU are -3.06 ± 0.44 and -0.887 ± 0.18.
